What is called Kd is the concentration at which binding is half-saturated. For orientation: koff means a measure of how fast the partners let go of each other. As a reminder, the kon is the rate constant with which the complex forms. Lower therefore signals slower complex formation.

This note sets out measurements from patent EP4606823A1 (Bristar Immunotech Limited, dated 2025).

For assay [1], the target named is T1, stock region of LILRB4 (UniProt Q8NHJ6 219-259, limits assumed).
T1 construct: domain: stock region
Nature of the assay: flow cytometry. On the technique in general: A flow cytometer gives signals particle by particle.

The target in assay [2] is T2, LILRB4 protein (UniProt Q8NHJ6 22-259).
T2 construct: also called Pro-LB
The assay can be described thus: SPR (Biacore 8K); VHH-Fc captured by anti-human IgG(Fc) on CM5 chip, LILRB4 protein as analyte 0.977-62.5 nM; 1:1 binding fit.

The target of assay [3] is T3, LILRA2 (UniProt Q8N149 24-483, limits assumed).
T3 construct: whole, on cells
Nature of the assay: flow cytometry on 293T cells expressing the protein.

The target in assay [4] is T4, LILRB3 (UniProt O75022 24-631, limits assumed).
T4 construct: whole, on cells
Described as above.

For assay [5], the target named is T5, LILRB1 (UniProt Q8NHL6 24-650, limits assumed).
T5 construct: whole, on cells
The description is as above.

For assay [6], the target named is T6, LILRB5 (UniProt O75023 24-590, limits assumed).
T6 construct: whole, on cells
The description is as above.

Assay [7] has as its target T7, LILRA6 (UniProt Q6PI73 24-481, limits assumed).
T7 construct: whole, on cells
The description is as above.

Assay [8] concerns the target T8, LILRB2 (UniProt Q8N423 22-597, limits assumed).
T8 construct: whole, on cells
The description is as above.

For assay [9], the target named is T9, LILRA3 (UniProt Q8N6C8 24-439, limits assumed).
T9 construct: whole, on cells
Described as above.

Assay [10] addresses T10, LILRA4 (UniProt P59901 24-499, limits assumed).
T10 construct: whole, on cells
The description is as above.

The target of assay [11] is T11, LILRA1 (UniProt O75019 17-489, limits assumed).
T11 construct: whole, on cells
The assay is described as above.

The target in assay [12] is T12, LILRA5 (UniProt A6NI73 42-299, limits assumed).
T12 construct: whole, on cells
The description is as above.

The target of assay [13] is T13, mouse LILRB4 (mouse, UniProt Q64281 24-335).
T13 construct: whole, on cells; also called 293T-mouse LILRB4
T13 sequence (looked up): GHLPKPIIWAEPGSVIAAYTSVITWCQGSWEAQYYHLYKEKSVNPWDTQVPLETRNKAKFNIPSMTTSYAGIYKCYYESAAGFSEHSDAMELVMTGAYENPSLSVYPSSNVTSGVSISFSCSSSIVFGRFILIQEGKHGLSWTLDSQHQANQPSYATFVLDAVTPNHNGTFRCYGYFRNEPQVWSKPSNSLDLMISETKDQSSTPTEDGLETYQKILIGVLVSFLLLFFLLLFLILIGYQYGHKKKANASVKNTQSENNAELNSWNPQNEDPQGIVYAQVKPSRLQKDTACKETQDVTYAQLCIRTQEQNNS
Nature of the assay: flow cytometry on 293T-mouse LILRB4.

T8 sequence (Q8N423 22-597 limits assumed): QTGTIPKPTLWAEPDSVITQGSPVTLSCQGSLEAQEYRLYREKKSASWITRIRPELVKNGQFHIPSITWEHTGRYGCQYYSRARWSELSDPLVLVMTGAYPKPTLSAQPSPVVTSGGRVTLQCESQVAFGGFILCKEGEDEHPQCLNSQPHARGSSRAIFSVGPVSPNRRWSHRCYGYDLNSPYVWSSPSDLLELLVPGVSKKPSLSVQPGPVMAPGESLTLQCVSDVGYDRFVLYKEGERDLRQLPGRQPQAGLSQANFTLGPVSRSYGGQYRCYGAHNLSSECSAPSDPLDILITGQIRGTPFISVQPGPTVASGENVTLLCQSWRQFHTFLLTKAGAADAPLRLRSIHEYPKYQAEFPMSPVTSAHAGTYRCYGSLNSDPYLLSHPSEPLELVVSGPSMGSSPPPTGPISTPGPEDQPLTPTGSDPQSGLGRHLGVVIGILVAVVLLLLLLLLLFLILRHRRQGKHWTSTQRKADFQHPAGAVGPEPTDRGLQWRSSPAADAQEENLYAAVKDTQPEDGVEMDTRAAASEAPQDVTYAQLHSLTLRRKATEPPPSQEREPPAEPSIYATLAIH
T6 sequence (O75023 24-590 limits assumed): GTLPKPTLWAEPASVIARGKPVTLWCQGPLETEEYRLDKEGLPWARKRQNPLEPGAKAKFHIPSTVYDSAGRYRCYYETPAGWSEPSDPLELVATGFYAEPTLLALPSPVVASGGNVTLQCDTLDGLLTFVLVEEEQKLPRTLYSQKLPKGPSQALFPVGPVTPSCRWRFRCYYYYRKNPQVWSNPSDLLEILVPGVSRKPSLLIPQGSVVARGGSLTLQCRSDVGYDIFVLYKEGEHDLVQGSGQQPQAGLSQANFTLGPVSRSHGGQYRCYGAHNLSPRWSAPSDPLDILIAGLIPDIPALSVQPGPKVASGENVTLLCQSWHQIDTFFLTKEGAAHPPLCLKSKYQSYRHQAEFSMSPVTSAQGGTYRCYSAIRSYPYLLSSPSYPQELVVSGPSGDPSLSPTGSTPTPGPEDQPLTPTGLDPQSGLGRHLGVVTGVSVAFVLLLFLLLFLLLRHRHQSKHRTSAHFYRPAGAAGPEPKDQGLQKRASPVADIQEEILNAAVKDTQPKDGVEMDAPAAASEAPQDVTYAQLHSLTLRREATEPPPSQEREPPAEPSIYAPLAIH
T3 sequence (Q8N149 24-483 limits assumed): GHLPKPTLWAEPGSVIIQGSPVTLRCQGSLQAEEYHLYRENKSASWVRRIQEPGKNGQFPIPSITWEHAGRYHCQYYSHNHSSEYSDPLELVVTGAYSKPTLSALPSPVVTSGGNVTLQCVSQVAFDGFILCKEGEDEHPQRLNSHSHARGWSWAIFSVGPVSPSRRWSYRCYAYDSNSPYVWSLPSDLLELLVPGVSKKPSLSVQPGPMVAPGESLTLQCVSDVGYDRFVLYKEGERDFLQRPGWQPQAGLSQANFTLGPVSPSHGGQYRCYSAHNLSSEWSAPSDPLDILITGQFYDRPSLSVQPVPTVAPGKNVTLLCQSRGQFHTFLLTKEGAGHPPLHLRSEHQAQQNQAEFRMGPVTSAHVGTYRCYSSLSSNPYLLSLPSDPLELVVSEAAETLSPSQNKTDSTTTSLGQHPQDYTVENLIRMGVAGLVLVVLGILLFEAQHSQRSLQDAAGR
T1 sequence (Q8NHJ6 219-259 limits assumed): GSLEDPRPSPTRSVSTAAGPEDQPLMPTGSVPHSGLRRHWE
T4 sequence (O75022 24-631 limits assumed): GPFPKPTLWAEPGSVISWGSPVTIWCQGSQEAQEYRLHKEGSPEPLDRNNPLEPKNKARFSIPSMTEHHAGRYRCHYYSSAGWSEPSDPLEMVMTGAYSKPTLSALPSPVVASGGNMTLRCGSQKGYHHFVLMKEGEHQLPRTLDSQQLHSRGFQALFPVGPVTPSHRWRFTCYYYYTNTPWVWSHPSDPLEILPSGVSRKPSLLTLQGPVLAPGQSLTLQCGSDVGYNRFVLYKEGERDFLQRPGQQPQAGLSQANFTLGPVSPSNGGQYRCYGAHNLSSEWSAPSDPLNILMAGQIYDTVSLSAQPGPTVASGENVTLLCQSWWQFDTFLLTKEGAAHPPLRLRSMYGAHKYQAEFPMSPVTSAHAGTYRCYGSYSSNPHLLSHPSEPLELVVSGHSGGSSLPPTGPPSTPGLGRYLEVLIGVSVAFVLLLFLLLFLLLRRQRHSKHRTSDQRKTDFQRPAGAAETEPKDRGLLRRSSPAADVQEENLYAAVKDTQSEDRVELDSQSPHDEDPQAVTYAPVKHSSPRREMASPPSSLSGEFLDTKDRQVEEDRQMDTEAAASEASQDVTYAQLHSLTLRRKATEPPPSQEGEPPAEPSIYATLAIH
T7 sequence (Q6PI73 24-481 limits assumed): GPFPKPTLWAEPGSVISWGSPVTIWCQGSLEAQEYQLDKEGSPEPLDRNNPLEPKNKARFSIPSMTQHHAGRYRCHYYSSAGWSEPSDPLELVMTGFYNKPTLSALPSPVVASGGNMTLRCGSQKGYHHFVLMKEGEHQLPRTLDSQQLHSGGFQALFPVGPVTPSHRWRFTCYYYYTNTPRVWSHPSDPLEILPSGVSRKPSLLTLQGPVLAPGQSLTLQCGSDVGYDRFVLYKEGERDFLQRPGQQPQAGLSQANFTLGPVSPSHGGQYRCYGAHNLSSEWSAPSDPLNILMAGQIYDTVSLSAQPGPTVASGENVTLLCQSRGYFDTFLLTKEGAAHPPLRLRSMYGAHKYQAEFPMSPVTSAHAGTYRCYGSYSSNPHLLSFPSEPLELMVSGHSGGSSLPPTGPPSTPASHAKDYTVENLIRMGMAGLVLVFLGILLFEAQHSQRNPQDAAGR
T12 sequence (A6NI73 42-299 limits assumed): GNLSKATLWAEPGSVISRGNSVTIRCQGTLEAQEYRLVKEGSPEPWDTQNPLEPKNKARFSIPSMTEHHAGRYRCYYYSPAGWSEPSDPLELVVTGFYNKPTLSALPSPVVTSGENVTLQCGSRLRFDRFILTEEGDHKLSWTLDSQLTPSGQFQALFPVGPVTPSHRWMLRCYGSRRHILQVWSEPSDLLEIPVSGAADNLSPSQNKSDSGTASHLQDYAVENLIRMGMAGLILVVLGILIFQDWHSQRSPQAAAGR
T11 sequence (O75019 17-489 limits assumed): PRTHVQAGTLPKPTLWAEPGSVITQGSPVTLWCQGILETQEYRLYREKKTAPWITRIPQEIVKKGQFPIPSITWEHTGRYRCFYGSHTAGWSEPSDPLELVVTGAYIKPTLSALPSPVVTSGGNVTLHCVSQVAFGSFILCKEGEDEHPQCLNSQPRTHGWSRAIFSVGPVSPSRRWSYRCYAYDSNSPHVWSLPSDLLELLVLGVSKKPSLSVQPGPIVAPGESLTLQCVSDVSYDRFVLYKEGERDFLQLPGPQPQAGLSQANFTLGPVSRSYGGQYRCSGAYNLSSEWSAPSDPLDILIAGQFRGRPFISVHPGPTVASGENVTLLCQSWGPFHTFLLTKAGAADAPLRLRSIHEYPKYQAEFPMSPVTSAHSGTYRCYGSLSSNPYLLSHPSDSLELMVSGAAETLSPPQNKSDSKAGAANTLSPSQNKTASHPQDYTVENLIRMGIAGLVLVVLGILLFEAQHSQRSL
T10 sequence (P59901 24-499 limits assumed): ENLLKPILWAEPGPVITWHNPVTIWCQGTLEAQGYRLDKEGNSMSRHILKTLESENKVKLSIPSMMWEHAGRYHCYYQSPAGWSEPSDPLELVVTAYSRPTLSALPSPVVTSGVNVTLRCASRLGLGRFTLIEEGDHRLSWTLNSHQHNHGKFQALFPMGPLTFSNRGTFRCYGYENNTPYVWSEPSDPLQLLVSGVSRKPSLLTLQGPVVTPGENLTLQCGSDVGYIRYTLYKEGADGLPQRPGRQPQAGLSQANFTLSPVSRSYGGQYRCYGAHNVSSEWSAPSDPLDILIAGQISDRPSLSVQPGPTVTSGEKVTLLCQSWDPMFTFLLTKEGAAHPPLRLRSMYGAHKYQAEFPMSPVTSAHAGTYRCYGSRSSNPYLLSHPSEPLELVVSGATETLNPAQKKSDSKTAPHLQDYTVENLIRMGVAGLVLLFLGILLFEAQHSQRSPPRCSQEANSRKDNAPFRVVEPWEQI
T5 sequence (Q8NHL6 24-650 limits assumed): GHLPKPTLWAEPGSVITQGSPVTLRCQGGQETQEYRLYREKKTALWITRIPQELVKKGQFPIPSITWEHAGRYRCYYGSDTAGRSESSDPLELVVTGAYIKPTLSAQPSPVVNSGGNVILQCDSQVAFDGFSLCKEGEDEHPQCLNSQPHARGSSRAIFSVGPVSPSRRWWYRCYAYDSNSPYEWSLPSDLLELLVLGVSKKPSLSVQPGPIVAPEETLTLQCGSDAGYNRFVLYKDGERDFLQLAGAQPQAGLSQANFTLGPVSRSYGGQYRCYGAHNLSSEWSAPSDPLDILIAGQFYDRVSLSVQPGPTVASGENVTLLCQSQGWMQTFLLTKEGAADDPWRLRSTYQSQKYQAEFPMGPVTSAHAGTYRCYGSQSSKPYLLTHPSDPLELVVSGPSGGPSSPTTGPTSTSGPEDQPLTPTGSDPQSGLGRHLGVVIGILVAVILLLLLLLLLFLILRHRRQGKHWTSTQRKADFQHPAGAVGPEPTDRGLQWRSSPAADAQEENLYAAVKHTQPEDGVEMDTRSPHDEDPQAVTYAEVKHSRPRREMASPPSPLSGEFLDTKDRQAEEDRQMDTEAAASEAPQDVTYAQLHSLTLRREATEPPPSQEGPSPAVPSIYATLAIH
T9 sequence (Q8N6C8 24-439 limits assumed): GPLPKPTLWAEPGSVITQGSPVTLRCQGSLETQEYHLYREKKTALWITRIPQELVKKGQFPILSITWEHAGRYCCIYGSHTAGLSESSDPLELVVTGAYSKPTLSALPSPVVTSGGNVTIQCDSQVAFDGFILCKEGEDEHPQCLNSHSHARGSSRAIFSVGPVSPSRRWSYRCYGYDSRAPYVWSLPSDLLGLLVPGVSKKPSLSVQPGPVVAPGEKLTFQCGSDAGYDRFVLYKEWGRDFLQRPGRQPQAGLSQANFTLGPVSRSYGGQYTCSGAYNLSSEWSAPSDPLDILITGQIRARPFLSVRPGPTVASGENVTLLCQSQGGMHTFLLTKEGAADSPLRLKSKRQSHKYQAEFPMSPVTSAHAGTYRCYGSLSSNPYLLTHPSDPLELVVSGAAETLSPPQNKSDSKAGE

B1: NLB14 VHH antibody fused with human IgG1 (Fc) (Fc fusion)
chain: DVQLQESGGGLVQPGGSLRLSCAASGFTLDYYAIGWFRQAPGKEREGVSCVSSSDGSTYYADSVKGRFTISRDNAKNTVYLQMNSLKPEDTAVYYCAADQYSSTWTIRLTRCHFGSWGQGTQVTVSSGGGGS
notes: also called NLB(G4S)IGG1FC; NLB14 nanobody; not shown: human IgG1 Fc
Turning to B1, the binding result in assay [1], in [3], in assay [4], in [5], in [6] and in [7] was “no binding” throughout. Further, the binding result in assay [8], in [9], in assay [10], in assay [11], in assay [12] and in assay [13] was “no binding” in each case. The same molecule registered a Kd in assay [2] of 493 pM. The off-rate constant (koff) in assay [2] turned out to be 0.000301 s⁻¹. The kon in [2] turned out to be 612000 M⁻¹ s⁻¹.

B2: NLB4 VHH antibody fused with human IgG1 (Fc) (Fc fusion)
chain: DVQLQESGGGLVQSGGSLRLSCLASGTSGNVKAVGWYGWYRQAPGKQREVVATITRGGIPNYADSVQGRFTISRDNAQDTVFLQMNSLKPADTAVYYCYARILTDDWHDLWGQGTQVTVSSGGGGS
notes: also called NLB(G4S)IGG1FC; NLB4 nanobody; not shown: human IgG1 Fc
Regarding B2, the binding result in assay [1], in assay [3], in assay [4], in [5], in [6] and in [7] was “no binding” in each case. For the same molecule, the binding result in assay [8], in assay [9], in assay [10], in assay [11], in assay [12] and in assay [13] was “no binding” throughout. The molecule further came in with a Kd in assay [2] of 1320 pM. The molecule also gave a koff in assay [2] of 0.000551 s⁻¹. Moreover, in assay [2], the on-rate constant (kon) was 418000 M⁻¹ s⁻¹.
